Assay results reported in PMC6265255.

Target: human FcγRIIA (R131 variant) expressed on Jurkat cells (UniProt P12318)
Test: FLIM
Conditions: Jurkat cells co-expressing FcγRIIA and Mac-1; donor anti-FcγRIIA IV.3 AF488 + acceptor anti-Mac-1 (CD11b) ICRF44 AF568; n = 3 experiments

Chain of UniProt P12318 (P12318 34-217, change not shown): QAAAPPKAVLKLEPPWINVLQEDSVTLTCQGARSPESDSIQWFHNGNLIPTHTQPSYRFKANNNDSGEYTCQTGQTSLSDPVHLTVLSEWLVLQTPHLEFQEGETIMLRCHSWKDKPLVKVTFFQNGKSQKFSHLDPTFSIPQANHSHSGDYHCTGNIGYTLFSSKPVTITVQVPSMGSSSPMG

Substance: human Mac-1 (CD11b/CD18), wild type, expressed on Jurkat cells (from UniProt P11215;P05107) E253-R261 (… replaced with … of CD11a)
- other: FcγRIIA fluorescence lifetime tm (donor + acceptor): 1830 ps
